# According to paper PMC7276532, “C-terminal eYFP fusion impairs Escherichia coli MinE function” (Open Biology, 2020):
# T1: Strep-MinD^D40AΔ10 (E. coli, UniProt P0AEZ3 1-260, D40A)
# T1 construct: MinD, E. coli, with D40A and lacking the last 10 amino acids; the reverse primer anneals 33 nucleotides upstream of the stop codon of minD; Cloned into the pET28a backbone without the region between NcoI and HindIII, so without the His and T7 tags; also called MinD^D40Δ10; source: E. coli Rosetta (DE3) pLysS, purified (Strep-Tactin cartridge, desalting); not shown: Strep-tag, N-terminal, kept
# T1 sequence (looked up): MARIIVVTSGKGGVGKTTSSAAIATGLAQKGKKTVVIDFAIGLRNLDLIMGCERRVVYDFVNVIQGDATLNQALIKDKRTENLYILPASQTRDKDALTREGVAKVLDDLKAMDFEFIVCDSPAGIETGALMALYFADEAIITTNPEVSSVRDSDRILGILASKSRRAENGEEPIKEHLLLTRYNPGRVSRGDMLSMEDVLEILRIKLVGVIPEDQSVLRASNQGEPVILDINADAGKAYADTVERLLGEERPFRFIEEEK
# B1: His-MinE (natural protein, E. coli, UniProt P0A734 1-88, looked up)
# chain: MALLDFFLSRKKNTANIAKERLQIIVAERRRSDAEPHYLPQLRKDILEVICKYVQIDPEMVTVQLEQKDGDISILELNVTLPEAEELK
# notes: MinE, E. coli; the minE gene amplified from the MG1655 genome into pET28a (BamHI/HindIII); 88 amino acids; The same construct as m1, with the His-tag kept for the pull-down; source: E. coli Rosetta (DE3) pLysS, purified (IMAC nickel column, desalting); not shown: His6, N-terminal, kept
# B2: MinE (untagged MinE; His-tag removed with thrombin) (natural protein, E. coli, UniProt P0A734 1-88, looked up)
# chain: B1 chain
# notes: MinE, E. coli; the minE gene amplified from the MG1655 genome into pET28a (BamHI/HindIII); 88 amino acids; Eluted as a tetramer in SEC; also called wild-type; source: E. coli Rosetta (DE3) pLysS, purified (IMAC nickel column, desalting), His-tag removed with thrombin; not shown: His6, N-terminal, cleaved
# How the values were obtained:
# Strep-MinD^D40AΔ10 = target: T1, Strep-MinD^D40AΔ10; assay: pull-down; about 5 µM His-MinE or His-MinE-eYFP on MagneHis beads with 3 µM Strep-MinD^D40AΔ10, with ATP (1 mM), 5 mM MgCl2, 50 mM HEPES-KOH pH 7.25, 150 mM KCl, 10% glycerol, room temperature, 15 min; eluted with imidazole; settings: both partners purified
# [1] = target: the molecule itself; assay: SEC; Superdex 200, 13 µM protein injected, 50 mM HEPES-KOH pH 7.25, 150 mM KCl, 0.1 mM EDTA, 10% glycerol, room temperature; size judged against BSA (66 kDa) and carbonic anhydrase (29 kDa)
binder,measurement,setting,value
B1,binding result,Strep-MinD^D40AΔ10,binds
B2,stoichiometry N,[1],4
